Laboratory results from paper PMC3489907, “The Human Homolog of Escherichia coli Endonuclease V Is a Nucleolar Protein with Affinity for Branched DNA Structures”.

Molecular target: T1, ENDOV WT (human endonuclease V, exon 10 isoform) (Homo sapiens, UniProt Q8N8Q3 1-282)
T1 sequence: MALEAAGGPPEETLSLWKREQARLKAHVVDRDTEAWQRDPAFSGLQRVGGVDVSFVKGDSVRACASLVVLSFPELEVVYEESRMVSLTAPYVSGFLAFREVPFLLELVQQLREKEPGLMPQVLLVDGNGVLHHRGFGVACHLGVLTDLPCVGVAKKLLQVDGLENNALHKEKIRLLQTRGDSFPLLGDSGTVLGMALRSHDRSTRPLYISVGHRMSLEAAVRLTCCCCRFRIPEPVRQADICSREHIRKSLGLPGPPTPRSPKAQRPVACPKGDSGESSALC
Assay: EMSA; 5 mM Ca2+; EMSA: 10 fmol DNA in 10 µl, 5 ng pQE31 competitor DNA, 5 mM CaCl2, 10 mM HEPES-KOH pH 7.4, 1 mM DTT, 20% glycerol, 4°C 15 min; 10% native PAGE with 5 mM CaCl2 on ice; ENDOV 1.6-6.4 pmol, E. coli endoV 2-8 pmol
Details: protein: recombinant, tags: none (His6-MBP removed with TEV)

B1: Holliday junction (16+17*+18+19) (structured_DNA)
DNA 1: CCGCTACCAGTGATCACCAATGGATTGCTAGGACATCTTTGCCCACCTGCAGGTTCACCC
DNA 2: TGGGTGAACCTGCAGGTGGGCAAAGATGTCCTAGCAATCCATTGTCTATGACGTCAAGCT
DNA 3: GAGCTTGACGTCATAGACAATGGATTGCTAGGACATCTTTGCCGTCTTGTCAATATCGGC
DNA 4: TGCCGATATTGACAAGACGGCAAAGATGTCCTAGCAATCCATTGGTGATCACTGGTAGCGG
B1: binds (label: 5'-32P on strand 2, four-way junction 1:2 2:3 3:4 4:1).

B2: 5'-flap (10+12+13*) (structured_DNA)
DNA 1: GGATACGTAACAACGCTTATGCATCGCCGCCGCTACATCCCTGAGCTGAC
DNA 2: GTCAGCTCAGGGATGTAGCGGCGG
DNA 3: TGTGTTCGATCTCGATCAGAATGACGATGCATAAGCGTTGTTACGTATCC
B2: binds (label: 5'-32P on strand 3, 5'-flap, 1:2 1:3, 5' part of strand 3 unpaired (24 nt)).

B3: 3-way junction (10*+13+14) (structured_DNA)
DNA 1: B2 DNA 1
DNA 2: B2 DNA 3
DNA 3: GTCAGCTCAGGGATGTAGCGGCGGAGTCATTCTGATCGAGATCGAACACA
B3: binds (label: 5'-32P on strand 1, three-way junction 1:2 1:3 2:3).

B4: pseudo-Y (10*+13) (structured_DNA)
DNA 1: B2 DNA 1
DNA 2: B2 DNA 3
B4: binds (label: 5'-32P on strand 1, splayed duplex 1:2, 3' part of strand 1 and 5' part of strand 2 unpaired (24 nt each)).

B5: 3'-flap (10+11+14*) (structured_DNA)
DNA 1: B2 DNA 1
DNA 2: ATGCATAAGCGTTGTTACGTATCC
DNA 3: B3 DNA 3
B5: binds (label: 5'-32P on strand 3, 3'-flap, 1:2 1:3, 3' part of strand 3 unpaired).

B6: fork (10+11+14*+15) (structured_DNA)
DNA 1: B2 DNA 1
DNA 2: ATGCATAAGCGTTGTTACGTATCC
DNA 3: B3 DNA 3
DNA 4: TGTGTTCGATCTCGATCAGAATGA
B6: binds (label: 5'-32P on strand 3, fork 1:2 1:3 3:4).
